This data set is described as follows: soluble on expression in E. coli; label from the status in PepcDB or PDB records.
Turning to “MIGKRFFQTTSKKIAFAFDIDGVLFRGKKPIAGASDALKLLNRNKIPYILLTNGGGFSERARTEFISSKLDVDVSPLQIIQSHTPYKSLVNKYSRILAVGTPSVRGVAEGYGFQDVVHQTDIVRYNRDIAPFSGLSDEQVMEYSRDIPDLTTKKFDAVLVFNDPHDWAADIQIISDAINSENGMLNTLRNEKSGKPSIPIYFSNQDLLWANPYKLNRFGQGAFRLLVRRLYLELNGEPLQDYTLGKPTKLTYDFAHHVLIDWEKRLSGKIGQSVKQKLPLLGTKPSTSPFHAVFMVGDNPASDIIGAQNYGWNSCLVKTGVYNEGDDLKECKPTLIVNDVFDAVTKTLEKYA”, the “soluble on expression in E. coli” value is “soluble”.
The entry for “MGSFMTDIAVIINNRAKNAHRMEDYLSELRAHDIDYQLYKADPQQLEKNIQHCCSKYPLLLIGGGDGTVRSAAQWCSNTSVILGVLPLGTMNHFSKELNLPSTTEELIAAIVEKTTTTIDVAEVNGH” is “not soluble”; for “SEDGGWNTIESDPAVFTQLLEDLGVKDVKVEEVLQLDAAFLRSLEPVHGLIFLFKWLPDQGSEQELSFSQDVDLFFANQVIQNACGTQALLSVVFNAKDLELGSELAEFKEFTKDFDPQTRGLALSNSETIRSAHNSLSGLQHFSFEFDEKEKSDSFHFISYVPFQGRIYELDGLKKGPICRGSYTAERHWTDVAISEIEKRIERYGEGEIRFNLLAVVRDPLKIWQQELLSYQTALESCSLEVERMSISMQMKEIQTRMEDEKKRRESIRRESNRRRHNMLPFIFHLIKWLHENSDLSFT” it is “soluble”; for “DALESKKINEALLKQGEALINQLNDRARADTVRYAEEVVKTAAERVKEASQNLTDYRIANGVFDLKAQSEVQMGLVSKLQDELIVIQTQLDQVKAVTPENPQIPGLQAREQSLRKEIDQQLRAISGGGHSSLSNQAAEYQRVYLENQLAEQQLAAAMTSLESAKVEADRQQLYLEVISQPSLPDLAHEPKR” it is “soluble”.
In the case of “MGHHHHHHSHALKRLEVEVELFNQPSEELENFDFIVSVGGDGTILRILQKLKRCPPIFGINTGRVGLLTHASPENFEVELKKAVEKFEVERFPRVSCSAMPDVLALNEIAVLSRKPAKMIDVALRVDGVEVDRIRCDGFIVATQIGSTGYAFSAGGPVVEPYLECFILIPIAPFRFGWKPYVVSMERKIEVIAEKAIVVADGQKSVDFDGEITIEKSEFPAVFFKNEKRFRNL” it was “not soluble”; in that of “SDQGLIFTNHHCGYGAIQSQSTVDHDYLRDGFVSRTMGEELPIPGLSVKYLRKIVKVTDKVEGQLKGITDEMERLRKAQEVCQELAKKENADENQLCIVEPFYSNNEYFLIVYDVFKDVRMVFAPPSSVGKFGGDTDNWMWPRHTGDFSVFRVYAGADNRPAEYSKDNKPYKPVYFAAVSMQGYKADDYAMTIGFPGSTDRYLTSWGVEDRIENENNPRIEVRGIKQGIWKEAMSADQATRIKYASKYAQSANYWKNSIGMNRGLARLDVIGRKRAEERAFADWIRKNGKSAVYGDVLSSLEKAYKEGAKANREMTYLSETLFGGTEVVRFAQFANALATNPDAHAGILKSLDDKYKDYLPSLDRKVLPAMLDIVRRRIPADKLPDIFKNVIDKKFKGDTKKYADFVFDKSVVPYSDKFHAMLKSMDKEKFAKAIEKDPAVELSKSVIAAARAIQADAMANAYAIEKGKRLFFAGLREMYPGRALPSDANFTMRMSYGSIKGYEPQDGAWYNYHTTGKGVLEKQDPKSDEFAVQENILDLFRTKNYGRYAENGQLHIAFLSNNDITGGNSGSPVFDKNGRLIGLAFDGNWEAMSGDIEFEPDLQRTISVDIRYVLFMIDKWGQCPRLIQELKLI”, “not soluble”.
In the case of “MRFPPLLFFQDSEAVKRIANSVRGTKDDDAEIKDHSMRFIRNAISGDQQKEILNVDMLRYIAWVLVALNENIVTARTVIRERDAVEDALKNQQPEDIENFADDLKINMKYNRDLERFEIGVFDFVKYASRVTGSQYRLSNQSVIKGIVYCQKDVAIKILRESFVSNMFKVIDSIDQTTASPVLSDQTDSINELREFYKKSVYAKLTIGRGNTKAFPPCMKEIIRNLHEGINVPHMGRLAIASFLHKVGYTEDEIVEYFRNAPDFDESITRYQIKHLSGEISGVEYSPPKCETMRSNHLCFMDDDKLCHQDWMKHPLTYYEVKSRRLGMAGDPNSLEHHHHHH” it was “not soluble”; in that of “MGTTVEGGRSGPRYVQVADEIVQQIRAGVLKPGDMVPSESEMVDRYGVSGGTIRKAMVEVRASGLVETRHGKGSIVKDRPPVRHRSSDRFRRSLRQGGKAAYLAESEQSGATAKVSVLYIGPMEAPADAAQRLGVPAGTQVLARRRLYFRNGTPVETASSYLPWDVVKDIPELFAENPGGGGIYARLEDHGHEFAEFVETLQARPASKAEATELALSPGAPVVHLIREARTAAGLVVEVCDTLMAADQFVFEYRIPAAD”, “not soluble”.
Consider “MAHHHHHHMTSTTQPKWTRLPIRTRPHRNPLAENSDNHPDCPAELQEQCTTLFPGMDNPVITLVDVGCAFGGMLFSLAPDFPDMCMLGLEIRPKVVEFAQNKVMKLREGAATDGTSHHYRNVWFEQLNVMKFGSNCFNKGQLQALFFCYPDPHWKRKNVRRRIISPGLVQEYAYWLKVGGFLFTVSDVEELERWMVTCLDGCPLFRQLSQEELAGNEMVRKMLDYAANSSEDAQRTTRKGLQKHYAVHVRVP”, for which the “soluble on expression in E. coli” value was “not soluble”.
As to “MKALNLKTPGREDDDVDEVLDENTVQDVNENIMLKGLGGKENLQTIDHCATRLRLTVKDTALVDEALLKKAGAKGVVKSGGQSVQVIIGPNVEFAAEELRAAVK”, the “soluble on expression in E. coli” value is “not soluble”.
The entry for “MALRRVKNPEMWNDDLYNLMFRFTKPNGTFATFTAASAVRKGLESAGFNVTKRKGFGKKRECLSGLKIQSKSTALSTPWYLAQPAKMEKQDVAIIGGGIASLCAAISLIKRGAKVTIYCEDDALALNASGNKQGAFYPQLSDDNALTVDFYLHAFSYGRQLLDWAIEQNIVFEHEFCGVALCAYNEKSAVKLTKISQLGLPNEIFQMLSAEQLSEKVGLPLNCEGGWIEQGAWLAPRQFVQNAFSFLEKQGVVIKTAQKITALSQLEKGWELKNMQGQKYCHEVVILANGHKITDFVQTEKLPLYPIRGQVSQIPTSENLLKLKSVLCYDGYLTPANQLKTSHCIGASMFVIMLIAILANKNNKKINKNSSKISPNLGRKMWIHQIISLVLEHHHHHH” is “not soluble”; for “YCKTIPMPDLAYSEISVIGKLIRALPEPCALHLANSSTVRYAQLFTVPPQVEICCNRGVNGIEGSLSTAIGYAAASSKLNFIIIGDLSFFYDMNALWNQNYGANIRILLLNNEGGEIFHTLPGMDKSSRSREFITAEHYTTAKGWAEERGFIYMKVTGEEELEEAMQPFTSPETRMQPMLLEVFTDKEKDTTLLREYYHGLKNKNE” it is “not soluble”; for “MSFDGFFLHHLTKELQEQILWGRIQKVNQPFEQELVLTIRNNRQNYKLLLSAHPVFGRVQLTKTDFQNPQSPNTFTMIMRKYLQGALIENIEQIENDRILEMSISNKNEIGDQIKVTMIIEIMGKHSNIILLDKNEGKITESIKHIGFTQNSYRTILPGSRYLAPPKIQAQNPFTISDETLFEILQTEDLAANNLQKLFQGLGRDTAAELSQRLKTDTFKNFKLFFDSPTSPTLTEKSFTAITFSNSQETFGSLSDLLDYFYQDKAERDRIAQQASDLIHRIQNELEKNKKKLKKQEQELQDTDKAEEFRQKGELLTTYLNQVPNNQDSVELDNYYTGQKVSIPLNKALTPSQNAQRYFKKYQKLKEAVKHLGSLISETKATIQYLESVDNALNQASLSEISEIREELVQTGFVKRRHREKIQKRKK” it is “not soluble”.
With “MGHHHHHHSHGGSRTGPVSLQGDPKQAPWSSSQSNSSRKTLFLSLCPPFPTQPQIHLHFTEHRASSHQGGPFKLQICLSSLYSNLLLHCHYREVHHMSGHRTESAGGHLFLPQDLRWKSPGLGVFAVQSVYELARRHNVSPFYSGPP”, the “soluble on expression in E. coli” value is listed as “not soluble”.
In the case of “MGSDKIHHHHHHMALIEVQNLKKYFPVKQGPIDVLLRKPRKFVKAVDGVNFQIDEGKSLGLVGESGSGKTTTGRVILRLEEPTDGKIIFDGRDITKLSKEEMRKLRKEMQIIFQDPMASLNPYMRVGKAIEHALEIHGIGDRSSRKEMVLEMLRRVNLEPAEDIYRRYPRELSGGQRQRVVIARALILKPRLVVADEAVAMLDVSVRSQLLRLLQELRKEFNLTMLFITHDLATTKYVCDEIAVMYLGKIVEIGDFEDIYLNPKHPYTQALISAVPEPSLKKKKKFIPEGETPNPIDVPSGCRFHPRCPYRMDICMKEEPQLKAVEENHKVACHLYN” it was “not soluble”; in that of “MITVVIASRLREDRLDYLTAMHASLTRQSVPWEAVIALDGASPDRLPRQLAQDPRVDTLVLPRPVGAACARNLALTQVRTRYVNWADDDDEFTDDAMSVRLETLESTGVGWCAGWSEDQFRDGSTRLWRCPTPPGRHEAGDVWTFWKSPADTIPIGPTTILARTDLVRAAPMGGLVQGEDYCAALGVTALAPGILLPLPVYRYRKWGGQMTAQDGYDQLETAAREHAWAYGRSLRAVLRGGEDLVHVLEHHHHHH”, “not soluble”.
Regarding “MGKRLLDKLWERHVVTTNENGLDLLYIDLHLVHEVTSPQAFEGLRLTNRTVRRPDLTFATMDHNIPTKDVWNITDRIAKQQLDTLRENCKQFQVPLADIGDEEQGIVHVIGPELGLTQPGKTIVCGDSHTATHGAFGALAFGIGTSEVEHVLATQTLWQRKPKAMGIELKGKLQKGVYAKDIILHLLSKYGVAVGTGYVMEFYGETIGTMEMEERMTLCNMAIEGGAKAGIIAPDEKTFAYVKGRKYAPRDYETFEKKWFELYTDADAIYDLHISIDVTDLAPYVTWGTNPSMGVRIDEKLPEKHDVNDERAFSYMGLIPGQSTYDIPVQHVFIGSCTNSRLSDLEIAASVVKGRKVKEGVRALVVPGSKRVRDAAMQKGLHHIFEEAGFEWREPGCSMCLGMNPDQVPEGEHCASTSNRNFEGRQGKGARTHLVSPAMAAAAALYGHFVDIRKESYDGAISYS”, the “soluble on expression in E. coli” value is on record as “not soluble”.
The entry for “MSLAVDTSGEFMRHLYIEEGRTVCASATSRNRRPTSESPHSDDVVVVEGMLRGRPETRVHAMFDGFQGRHSAMWLAQNVMNYLNDLRDVNEEEITRQFERMDGDLRAANLPGGSSALIIFVRYEKKPTEARVVGRQIVPEGAKEFTSVAEALGGPLMPVVAMNFRRDPRAAKGIYTIHVASLGNSRCVLKSGRTAIHLSTPHTASSHKERHRVQAAGGVFTTVNGELLLGGVVPMTRAFGSFDFKKGGQGKLQQDLVSAVPDVTTFFAYPGDDIVAGTAGAFAHFRSHAAIAAAIALYPVSPETVLDAAKAMVVNAKRRKVTKNISTFVRHLPESRTRSQKMLEGTSGENGEEDFSIDRTNELTQALQAGFFSFLLYYEGHHHHHH” is “soluble”.
The entry for “MLPAVPPQQWALSAGNGSSEVEVVPFQEVWGRSYCRALERLVDVVSEYPSEVEHMFSPSCVSLLRCTGCCGDENLHCVPVETANVTMQLLKIRSGDRPSYVELTFSQHVRCECRPLREKMKPERCGDAVPRR” is “soluble”; for “MSATMQSETVYDAVIVGGGVAGGTAALLLRQRGCSVALLEKRPLDYYKALCTHFIQPSAVPILRRVGLDHVLEPEASTRTKASFVTSEGVIDTPGGYTDDAATAYAYNLERRVLDPALRARARSEGVDLLDEATVTACRLQADGLWRVEADADTDTDGARHPRVLRARVVIAADGRRSQMAQWLNNAAVQHDNQRAAVFAQFEGIAVPGGNRSLFILAEREMGFVYPLTGGRTLLSAYVEKDRAAQWRHSADAGAPLLDFFARLAPGLDLAGARLLTPVLGYADYPSQFRQPVCGAVPFIGDAALSLDPMSGVGCGFAMEAAALLDEHLGPALQAQGNSAIGPALDAYASRFDTHFAAHARGIVADSLIAKQPAAQAALYRAVIADPALQRDYLALTGRLITPQAFQRAYFSAHVRSQRAATTHAHPPERASELSLEHHHHHH” it is “not soluble”.
